Measurements taken from patent US11726088B2, “Sirtuin 4 (SIRT4) lipoamidase activity and uses thereof” (THE TRUSTEES OF PRINCETON UNIVERSITY, priority 2014, dated 2023).
Primed or numbered codes have the meaning given here. Ends that are not written are not given here. * marks the point of attachment. lipoyl″ = O=C(CCCC[C@@H]1CCSS1)*

Experiments:
[1] = molecular target: T1, SIRT4 (Homo sapiens, UniProt Q9Y6E7); experiment: HPLC-based SIRT4 kinetics assays (steady-state, acyl-modified peptide substrates); type: biochemical
T1 construct: 6xHis (followed by human rhinovirus 3C protease site) (N); made in house; host or cells: E. coli BL21(DE3), co-expressed with GroEL and GroES
T1 sequence (Q9Y6E7 33-314): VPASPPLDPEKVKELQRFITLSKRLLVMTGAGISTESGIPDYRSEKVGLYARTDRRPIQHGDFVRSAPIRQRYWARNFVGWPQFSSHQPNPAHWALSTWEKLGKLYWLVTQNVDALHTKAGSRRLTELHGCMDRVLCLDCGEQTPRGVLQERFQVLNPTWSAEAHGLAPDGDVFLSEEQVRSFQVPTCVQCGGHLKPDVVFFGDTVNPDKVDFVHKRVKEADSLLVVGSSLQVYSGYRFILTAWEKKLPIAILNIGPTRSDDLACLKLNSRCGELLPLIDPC
Text: Recombinant SIRT4 protein expression and purification. N-terminally truncated human Sirt4 (33-314 of SEQ ID NO: 2) was cloned into a derivative of pET-15b containing a human rhinovirus 3C Protease cleavage site in place of its thrombin cleavage site. 6×His-Sirt4 was co-expressed with GroEL and GroES in BL21(DE3) E. coli in order to promote proper protein folding. Protein was purified using immobilized-metal affinity chromatography (IMAC) followed by anion-exchange chromatography to remove associated folding chaperones. For some experiments the His-tag was removed using 3C protease. Protein was concentrated, snap frozen in N2(l), and stored at −80° C. HPLC-based SIRT4 kinetics assays. SIRT4 kinetic assays were essentially performed as described by others^3,4. Briefly, enzyme reactions (20 μL) were performed in 50 mM Tris, pH 8.0, containing 5 μM recombinant SIRT4 and varying concentrations (0 to 2500 μM) of H3K9- or DLAT-modified peptides with either acetyl-lysine, biotinyl-lysine, or lipoyl-lysine. Reactions were initiated by addition of NAD (1 mM) and incubated at 25° C. for between 30-120 min, depending on substrate-specific reaction rates and to maintain steady-state conditions. Reactions were quenched with formic acid to a final concentration of 0.5% (v/v) and analyzed by HPLC-UV detection (Ultimate 3000 RSLC/VWD-3400). Substrate and product were separated by reverse-phase chromatography (Acclaim PepMap RSLC, 75 μm×15 cm) at 0.75 μL/min. Product concentration was measured by peak integration of A280 signals. Initial reaction velocities were determined in at least duplicate and fit to a modified Briggs-Haldane equation, which substituted kcat×[SIRT4] for Vmax and allowed determination of kinetic parameters, kcat, Km and kcat/Km and their associated error (±SEM), using GraphPad Prism 5. SIRT4's catalytic efficiency towards the various acyl-modified peptide substrates was assessed (Table 1 below).

[2] = molecular target: T1, SIRT4; experiment: LC-MS-based in vitro peptide deacylation assay; type: biochemical; settings: 5 μM SIRT4, 10 uM peptide, with NAD, 1 hr at 37° C.
Text: Recombinant SIRT4 protein expression and purification. N-terminally truncated human Sirt4 (33-314 of SEQ ID NO: 2) was cloned into a derivative of pET-15b containing a human rhinovirus 3C Protease cleavage site in place of its thrombin cleavage site. 6×His-Sirt4 was co-expressed with GroEL and GroES in BL21(DE3) E. coli in order to promote proper protein folding. Protein was purified using immobilized-metal affinity chromatography (IMAC) followed by anion-exchange chromatography to remove associated folding chaperones. For some experiments the His-tag was removed using 3C protease. Protein was concentrated, snap frozen in N2(l), and stored at −80° C.
LC-MS-based in vitro peptide deacylation assay. The ability of SIRT4 to hydrolyze various acyl-lysine modifications was measured using LC-MS. In 20 μL reaction volume, 10 uM peptide (lipoyl-, biotinyl-, or acetyl-lysine) was incubated with increasing concentrations of SIRT4 (0.5 μM, 2.5 μM, and 5 μM), with or without NAD, in 50 mM TrisHCl, pH 8, 137 mM NaCl, 2.7 mM KCl and 1 mM MgCl2, for 1 hr at 37° C. Reactions were quenched with 25 μL of 2% TFA and an internal control peptide was spiked in to monitor for run-to-run variability. Reaction products were desalted, eluted, concentrated and analyzed by nano-LC-MS/MS, as above, but altered LC gradients. A 30 min linear gradient from 4-40% B was used for all peptides, except for lipoyl-lysine biological peptides, which used a 12-70% B linear gradient. Data were imported into Skyline software (version 2.1) to obtain precursor extracted ion chromatographams (XICs) using the following settings: Isotope Count, 3; precursor mass analyzer, Orbitrap; Resolving power, 60,000 @ 400 Th. The retention times of substrate (modified) and product (unmodified) peptides were confirmed by fragmentation spectra and peak integration boundaries were manually inspected. Three biological replicates were analyzed for each reaction.
The lipoamide cofactor bound to E2 (transferase enzymes) is required for dehydrogenase complex activity (FIG. 1b). Given that other mitochondrial SIRTs can hydrolyze various […] group lysine modifications^3,4 and that all PDHC components were present in our SIRT4 isolation, we speculated that E2 dehydrogenase components may be biological substrates of SIRT4, and that SIRT4 may directly hydrolyze the lipoamid modification. To test this we screened the in vitro activity of recombinant SIRT4 against differentially-modified synthetic peptides (FIG. 10). Firstly, SIRT4 activity towards acyl-modified H3K9 peptides (SEQ ID NOs: 3-5) was measured using a liquid-chromatography (LC)-MS-based deacylation assay. SIRT4 was incubated with H3K9 peptides modified with acetyl-lysine (SEQ ID NO: 5), biotinyl-lysine (SEQ ID NO: 4) or lipoyl-lysine (SEQ ID NO: 3), in the presence or absence of NAD. Following reaction, the remaining unreacted substrates and newly generated unmodified peptides were identified and quantified by LC-MS (FIG. 2A, 2G-2I and FIG. 5). […] To compare the relative preference of SIRT4 for these different substrates, we used extracted ion chromatograms to quantify unreacted substrate (S) and product (P) amounts from all reactions, and represented the percentage of unmodified peptide generated (FIG. 2H). […] The relative amount of unmodified product generated using 5 μM SIRT4 was 11% (lipoyl—SEQ ID NO: 3), 3% (biotinyl—SEQ ID NO: 4) and 0.3% (acetyl—[…]) (FIG. 2B and FIG. 2H, H3K9 substrates). […]

[3] = molecular target: T2, SIRT3 (Homo sapiens, UniProt Q9NTG7); experiment: Steady-state kinetic analysis of SIRT3 with DLAT K259 peptides; type: biochemical
T2 construct: purchased Sigma SRP0117-100UG
T2 sequence (Q9NTG7 1-399): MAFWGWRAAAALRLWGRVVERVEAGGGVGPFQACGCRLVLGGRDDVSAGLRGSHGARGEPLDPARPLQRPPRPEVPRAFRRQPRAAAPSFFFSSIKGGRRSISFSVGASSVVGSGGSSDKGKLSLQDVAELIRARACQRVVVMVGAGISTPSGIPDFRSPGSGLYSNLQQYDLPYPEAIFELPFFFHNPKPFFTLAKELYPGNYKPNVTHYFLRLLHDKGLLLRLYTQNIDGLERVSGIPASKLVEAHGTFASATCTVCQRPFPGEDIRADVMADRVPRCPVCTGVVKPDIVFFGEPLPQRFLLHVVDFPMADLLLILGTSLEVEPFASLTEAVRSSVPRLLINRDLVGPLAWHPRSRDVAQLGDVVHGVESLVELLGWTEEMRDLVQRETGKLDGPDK

[4] = molecular target: T3, SIRT5 (Homo sapiens, UniProt Q9NXA8); experiment: Kinetic analysis of SIRT5 with DLAT K259 peptides; type: biochemical
T3 construct: purchased Sigma SRP0119-100UG
T3 sequence (Q9NXA8 37-310): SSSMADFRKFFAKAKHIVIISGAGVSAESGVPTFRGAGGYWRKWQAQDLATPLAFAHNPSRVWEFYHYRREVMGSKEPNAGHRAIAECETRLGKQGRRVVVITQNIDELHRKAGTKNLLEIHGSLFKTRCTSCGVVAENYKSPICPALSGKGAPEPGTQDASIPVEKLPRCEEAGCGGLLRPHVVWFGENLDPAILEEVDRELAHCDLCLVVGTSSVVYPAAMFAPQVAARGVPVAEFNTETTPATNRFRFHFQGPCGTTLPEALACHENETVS

[5] = tested on: SIRT4 mRNA; experiment: SIRT4 knock-down efficiency by qRT-PCR in MRC5 cells stably expressing shRNA; type: cell-based, human; settings: MRC5 fibroblasts, mRNA level by qPCR; listed as construct #5
Text: SIRT4 shRNA expression. pLKO.1-puro vectors containing either non-targeting control shRNA or SIRT4-targeting shRNA were purchased from Sigma-Aldrich and are listed in FIG. 11. To generate MRC5 cells stably expressing each of the shRNA constructs, HEK293T cells were co-transfected with appropriate pLKO.1 vector, pCMVΔR8.2 (Addgene, plasmid #12263) and pMD2.G (Addgene, plasmid #12259) using FuGENE 6. Media containing lentivirus particles were used to transduce MRC5 cells, which were subsequently selected with 2 μg/mL puromycin (InvivoGen, cat. #ant-pr-1). Knockdown efficiency was measured by qRT-PCR and western blotting.
qRT-PCR analysis. For qRT-PCR analysis, MRC5 cells were collected and washed with PBS. Total RNA was isolated from cell pellets using RNeasy Mini Kit (Qiagen, cat. #74104) and the concentration/purity determined by measuring the absorbance 260/280 nm using NanoDrop Spectrophotometer (Thermo Fisher Scientific). For cDNA synthesis, 1 μg of RNA from each sample was first treated with DNase I (Life Technologies, cat. #18068015) and then used as a template in the RETROscript kit (Life Technologies, cat. #AM1710). The cDNAs were mixed with appropriate primers listed in FIG. 12 and Power SYBR green PCR master mix (Life Technologies, cat. #4368706) for qRT-PCR on ABI 7900HT Real-Time Thermocycler (Applied Biosystems). […]

[6] = SIRT4 enzyme concentration = 5 μM, NAD 1 mM, 25° C.

| Substance | Km [1, 6] [µM] | kcat [1, 6] [s⁻¹] | increase in efficiency compared to H3K9 lipoyl ([1]; another experiment (Table 1)) [fold] | increased efficiency compared to H3K9 lipoyl ([1]; first experiment) [fold] | efficiency of hydrolysis by SIRT4, fold more than deacetylation of MCD ([1]; versus MCD acetyl) [fold] | relative amount of unmodified product generated [2] [%] | SIRT3 efficiency, fold lower than for DLAT acetyl [3] [fold] | SIRT3 enzymatic activity [3] | SIRT5 activity [4] | SIRT4 knock-down [5] [%] |
| --- | --- | --- | --- | --- | --- | --- | --- | --- | --- | --- |
| DLAT K259 Lipoyl: synthetic DLAT K259 peptide with lipoyl-lysine (SEQ ID NO: 8) (EIETDK(lipoyl″)ATIGWW) | 239 ± 51 | 0.0016 ± 0.0001 | 3.3 | 3.5 | ~1270 | 33 | 13 | some enzymatic activity | no activity was detected | – |
| shSIRT4 #5: SIRT4-targeting shRNA construct in pLKO.1-puro vector, purchased from Sigma-Aldrich (DNA CCGGACAGGGACTTTCACTTGAATCCTCGAGGATTCAAGTGAAAGTCCCTGTTTTTTG) | – | – | – | – | – | – | – | – | – | > 80 |
